Data reported in patent US20260049105A1, “SELECTIVE MC4R LIGAND FOR TREATING OBESITY AND COGNITIVE LOSS” (ARIZONA BOARD OF REGENTS ON BEHALF OF THE UNIVERSITY OF …, priority 2022, published 2026).
Where two headings read alike, the source gives them in different places.

Assays:
[1] = molecular target: human melanocortin 1 receptor (human) (UniProt Q01726); assay: competition with 125I-NDP-α-MSH, cells expressing hMC1R
[2] = molecular target: human melanocortin 4 receptor (human) (UniProt P32245); assay: competition with 125I-NDP-α-MSH on whole HEK293 cells expressing hMC4R
[3] = molecular target: human melanocortin 3 receptor (human) (UniProt P41968); assay: cell-based or functional assay
[4] = molecular target: human melanocortin 1 receptor (human) (UniProt Q01726); assay: cell-based or functional assay
[5] = molecular target: human melanocortin 4 receptor (human) (UniProt P32245); assay: cell-based or functional assay
[6] = molecular target: human melanocortin 5 receptor (human) (UniProt P33032); assay: cell-based or functional assay
[7] = molecular target: human melanocortin 5 receptor (human) (UniProt P33032); assay: competition with 125I-NDP-α-MSH, cells expressing hMC5R
[8] = molecular target: human melanocortin 3 receptor (human) (UniProt P41968); assay: competition with 125I-NDP-α-MSH, cells expressing hMC3R
[9] = molecular target: human melanocortin 4 receptor (human) (UniProt P32245); assay: plasmon waveguide resonance, hMC4R membranes
[10] = molecular target: human melanocortin 4 receptor (human) (UniProt P32245); assay: competition with 125I-NDP-α-MSH, ratio of IC50 values
[11] = molecular target: human melanocortin 4 receptor (human) (UniProt P32245); assay: competition with 125I-NDP-α-MSH on whole HEK293 cells expressing hMC4R; remark: listed apart in the source

Chain of human melanocortin 4 receptor (human) (P32245 whole entry): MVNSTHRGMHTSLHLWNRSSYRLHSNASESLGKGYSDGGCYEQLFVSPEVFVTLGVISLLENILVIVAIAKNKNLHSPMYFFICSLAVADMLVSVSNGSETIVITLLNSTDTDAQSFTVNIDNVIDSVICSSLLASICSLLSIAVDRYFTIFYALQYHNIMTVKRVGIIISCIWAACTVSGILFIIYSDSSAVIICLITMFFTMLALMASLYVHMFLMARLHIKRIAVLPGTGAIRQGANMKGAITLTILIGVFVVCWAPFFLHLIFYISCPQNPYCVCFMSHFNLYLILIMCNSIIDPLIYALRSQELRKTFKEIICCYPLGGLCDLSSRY
Chain of human melanocortin 1 receptor (human) (Q01726 whole entry): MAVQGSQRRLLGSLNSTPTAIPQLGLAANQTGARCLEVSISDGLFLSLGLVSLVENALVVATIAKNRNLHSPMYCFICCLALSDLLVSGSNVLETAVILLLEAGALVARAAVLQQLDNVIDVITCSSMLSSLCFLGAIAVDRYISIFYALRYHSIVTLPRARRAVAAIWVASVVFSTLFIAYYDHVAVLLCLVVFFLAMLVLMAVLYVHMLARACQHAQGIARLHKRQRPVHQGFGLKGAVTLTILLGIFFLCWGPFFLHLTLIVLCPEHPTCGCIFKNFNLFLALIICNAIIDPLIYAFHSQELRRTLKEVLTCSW
Chain of human melanocortin 3 receptor (human) (P41968 whole entry): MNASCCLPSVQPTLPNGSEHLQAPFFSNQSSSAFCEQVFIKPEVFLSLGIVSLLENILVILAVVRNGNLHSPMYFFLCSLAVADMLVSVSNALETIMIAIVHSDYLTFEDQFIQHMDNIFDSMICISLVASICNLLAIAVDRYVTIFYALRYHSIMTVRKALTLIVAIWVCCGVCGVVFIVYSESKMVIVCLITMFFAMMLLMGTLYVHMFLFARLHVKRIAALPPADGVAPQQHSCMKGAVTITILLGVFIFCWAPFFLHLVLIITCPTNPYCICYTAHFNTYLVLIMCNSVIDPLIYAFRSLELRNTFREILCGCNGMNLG
Chain of human melanocortin 5 receptor (human) (P33032 whole entry): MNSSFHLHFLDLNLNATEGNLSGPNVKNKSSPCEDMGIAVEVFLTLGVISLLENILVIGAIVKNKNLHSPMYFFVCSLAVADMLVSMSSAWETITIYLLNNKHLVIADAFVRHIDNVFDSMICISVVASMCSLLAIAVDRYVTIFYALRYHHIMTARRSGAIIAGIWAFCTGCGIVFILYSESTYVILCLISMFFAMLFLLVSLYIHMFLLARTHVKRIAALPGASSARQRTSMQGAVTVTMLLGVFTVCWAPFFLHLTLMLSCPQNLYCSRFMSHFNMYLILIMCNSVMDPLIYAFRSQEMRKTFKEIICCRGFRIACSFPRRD

Row | Substance | BE % (percent NDP-α-MSH displacement at 10 µM) [1] | IC50 [1] | BE% (percent [125I]NDP-α-MSH displacement at 10 µM) [2] | IC50 [2] | Act % [3] | EC50 (nM), cAMP accumulation [3] | Act % [4] | EC50 (nM), cAMP accumulation [4] | Act % [5] | EC50 (nM), cAMP accumulation [5] | Act % [6] | EC50 (nM), cAMP accumulation [6] | BE % (percent NDP-α-MSH displacement at 10 µM) [7] | BE % (percent NDP-α-MSH displacement at 10 µM) [8] | IC50 [8] | IC50 [7] | also measured
1 | Ac-Arg-cyclo[Asp-Pip-D-Phe(4-Cl)-βArg-Trp-Lys]-NH2 (peptide) | 100% | 5 nM | 100% | 8 nM | 46% | 360 nM | 89% | 130 nM | 66% | 110 nM | 38% | > 1000 nM | 0% | 100% | 108 nM |  | 
2 | Ac-Arg-cyclo[Asp-Pip-D-Phe(4-Cl)-βArg-βTrp-Lys]-NH2 (peptide) | 100% | 27 nM | 100% | 0.4 nM | 63% | > 1000 nM | 90% | 240 nM | 87% | 4 nM | 76% | 295 nM | 75% | 10% |  | 70 nM | PWR resonance position, p-polarization (hMC4R sole 26.44) [9]: 26.9 degrees; fold higher binding affinity to hMC4R than hMC1R [10]: 68 fold; fold higher binding affinity to hMC4R than hMC3R [10]: > 1000 fold; fold higher binding affinity to hMC4R than hMC5R [10]: > 1000 fold; EC50 (cAMP) [5]: 4.2 nM
3 | Ac-Arg-cyclo[Asp-Pip-D-Phe(4-F)-βArg-βTrp-Lys]-NH2 (peptide) | 0% |  | 59% | 248 nM | 49% | > 1000 nM | 61% | > 1000 nM | 120% | > 1000 nM | 51% | > 1000 nM | 90% | 39% | 396 nM | 59 nM | 
4 | Ac-Arg-cyclo[Asp-Pip-D-Phe-Arg-βTrp-Lys]-NH2 (peptide) | 100% | 3 nM | 0% |  | 88% | 680 nM | 88% | 120 nM | 63% | > 1000 nM | 95% | 580 nM | 66% | 60% | 149 nM | 350 nM | 
5 | Ac-Arg-cyclo[Asp-Pip-D-Phe-βArg-βTrp-Lys]-NH2 (peptide) | 30% | 270 nM | 100% | 0.1 nM | 87% | 120 nM | 82% | 190 nM | 84% | 16 nM | 82% | 290 nM | 46% | 100% | 7 nM | 607 nM | IC50 [11]: 1 nM
6 | Melanotan II, Ac-Nle-c[Asp-His-DPhe-Arg-Trp-Lys]-NH2 (peptide) | 100% | 7 nM | 100% |  | 100% | 3 nM | 100% | 32 nM | 100% | 10 nM | 100% | 2 nM | 100% | 100% | 9 nM | 6 nM | 
7 | RM493 (peptide) |  |  |  |  |  |  |  |  |  |  |  |  |  |  |  |  | PWR left shift against hMC4R sole, p-polarization [9]: 0.25 degrees; PWR resonance position, s-polarization (sole MC4R 33.29) [9]: 33 degrees

The remaining substances from weak to strong by IC50 [1], led by results:

Row | BE % (percent NDP-α-MSH displacement at 10 µM) [1] | IC50 [1] | BE% (percent [125I]NDP-α-MSH displacement at 10 µM) [2] | IC50 [2] | Act % [3] | EC50 (nM), cAMP accumulation [3] | Act % [4] | EC50 (nM), cAMP accumulation [4] | Act % [5] | EC50 (nM), cAMP accumulation [5] | Act % [6] | EC50 (nM), cAMP accumulation [6] | BE % (percent NDP-α-MSH displacement at 10 µM) [7] | BE % (percent NDP-α-MSH displacement at 10 µM) [8] | IC50 [8] | IC50 [7] | Substance | also measured
8 | 100% | 0.9 nM | 100% | 10 nM | 24% | > 1000 nM | 67% | 99 nM | 57% | 240 nM | 21% | > 1000 nM | 0% | 70% | 37 nM |  | Ac-Arg-cyclo[Asp-Pip-D-Phe(4-Cl)-Arg-βTrp-Lys]-NH2 (peptide) | 
9 | 100% | 0.2 nM | 9% |  | 76% | 450 nM | 90% | 64 nM | 46% | 630 nM | 72% | 530 nM | 100% | 100% | 117 nM | 47 nM | Ac-Arg-cyclo[Asp-Pip-D-Phe(4-F)-Arg-βTrp-Lys]-NH2 (peptide) | 
10 | 100% | 0.1 nM | 100% | 0.4 nM | 89% | > 1000 nM | 120% | 220 nM | 67% | 47 nM | 90% | > 1000 nM | 0% | 24% | 600 nM |  | Ac-Arg-cyclo[Asp-Pip-D-Phe-βArg-Trp-Lys]-NH2 (peptide) | 
